Columns and labels:
Experiment in all cases: SPR; Biacore 8K; original LD3 and mutants immobilised on CM5 chip by amine coupling (500-1000 RU); Bcl-2 injected as analyte in serial 2-fold dilutions (from 2000 or 500 nM); HBS-EP+ pH 7.4, 150 mM NaCl; 1:1 Langmuir fit; three independent experiments
[1] = molecular target: LD3_v1 (L133A)
[2] = molecular target: LD3_v5 (K144A)
[3] = molecular target: LD3_v2 (I136A)
[4] = molecular target: LD3_v3 (D138A)
[5] = molecular target: LD3_v4 (F140A)
LD3_v4 (F140A), sequence (P02649 other isoform, or with tags, fused parts or gaps F140A): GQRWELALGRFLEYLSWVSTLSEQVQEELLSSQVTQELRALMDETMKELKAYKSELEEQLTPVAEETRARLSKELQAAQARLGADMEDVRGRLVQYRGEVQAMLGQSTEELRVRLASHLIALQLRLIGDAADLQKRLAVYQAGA

LD3_v5 (K144A), sequence (P02649 other isoform, or with tags, fused parts or gaps K144A): as the sequence (P02649 other isoform, or with tags, fused parts or gaps F140A) above, with A131F, K135A counted along it
LD3_v3 (D138A), sequence (P02649 other isoform, or with tags, fused parts or gaps D138A): as the sequence (P02649 other isoform, or with tags, fused parts or gaps F140A) above, with D129A, A131F counted along it
LD3_v1 (L133A), sequence (P02649 other isoform, or with tags, fused parts or gaps L133A): as the sequence (P02649 other isoform, or with tags, fused parts or gaps F140A) above, with L124A, A131F counted along it
LD3_v2 (I136A), sequence (P02649 other isoform, or with tags, fused parts or gaps I136A): as the sequence (P02649 other isoform, or with tags, fused parts or gaps F140A) above, with I127A, A131F counted along it

For “B-cell lymphoma 2 (Bcl-2) protein (from UniProt P10415 1-239) (natural protein)”, the Kd [1] was 65.8 nM, the koff [1] was 0.00263 s⁻¹ and the kon [1] was 40800 M⁻¹ s⁻¹. It also gave a Kd [2] of 0.46 nM, a koff [2] of 6.6e-05 s⁻¹ and a kon [2] of 455000 M⁻¹ s⁻¹. For the same substance, the Kd [3] was 0.74 nM, the koff [3] was 8.9e-05 s⁻¹ and the kon [3] was 360000 M⁻¹ s⁻¹. For the same substance, the Kd [4] was 358 nM, the koff [4] was 0.0184 s⁻¹ and the kon [4] was 154000 M⁻¹ s⁻¹. The Kd [5] was 27.3 nM, the koff [5] was 0.00197 s⁻¹ and the kon [5] was 240000 M⁻¹ s⁻¹.
